Read-outs that look alike come from different tables or passages of the source. Where a SMILES comes first, the peptide text is derived from it. [ ]: non-standard residue; d: D form. The star is where a group is joined. Cypate = CC1(C)C(/C=C/C=C/C=C/C=C2/N(CCC(=O)*)c3ccc4ccccc4c3C2(C)C)=[N+](CCC(=O)O)c2ccc3ccccc3c21
Key:
A549 cells [1] = test: Cell uptake, internalization and blocking of cypate-peptide conjugates (Example 3); format: cell-based, human
Protocol: The ABI-positive cells were incubated with cypate or cypate-peptide conjugates at 37° C. for different time points. A549 cells were grown as detailed above. The human glioblastoma cell line, U87, and the human embryonic kidney cell line, HEK, were purchased from ATTC. U87 and HEK cells were maintained in minimum essential medium (MEM) with 2 mM L-glutamine and Earle's BSS adjusted to contain 1.5 g/L sodium bicarbonate, 0.1 mM nonessential amino acids, and 1.0 mM sodium pyruvate, with 10% fetal calf serum, 100 units/mL penicillin, and 100 units/mL streptomycin. Cells were grown on Lab-Tek slides. The medium was replaced and cells were incubated for various times up to 4 h at 37° C. in the presence of 1 μM of the dye conjugated peptides. For fluorescence microscopy, cells were visualized with an Olympus BX61W1 microscope using 775/50 excitation, 845/55 emission. For subcellular localization studies, 25 nM mitotracker green or 50 nM lysotracker red from Molecular Probes (Eugene, Oreg.) was added during the last 15 min or 60 min of incubation, respectively. […] Relative fluorescence was determined for five different areas of each experimental condition using the Slidebook software, and the results were averaged. The average relative fluorescence for each condition was normalized to cells treated with Cyp-GRD peptide.

A549 cells [2] = test: CyQuant cytotoxicity and proliferation assay; format: cell-based, human; settings: 48 hours
Protocol: Cells were seeded at 2.5×10^4 cells/well and grown in 96 well plates in the presence of 0−1.5×10^−5 M cypate conjugated peptides for 24 or 48 hours. Cell proliferation was measured using the CyQuant proliferation assay from Molecular Probes (Eugene, Oreg.) per the manufacturer's protocol. Briefly, after incubation the microplate was inverted to remove the media and frozen at −70° C. overnight. The microplate was thawed at room temperature and 200 μL of the CyQuant GR dye/cell-lysis buffer was added to each well. […]
Because the Cyquant assay is based on the adherence of a dye to nucleic acids, the assay is a measure of both proliferative and cytotoxic effects.

A549 tumor [3] = test: In vivo fluorescence optical imaging and ex vivo organ distribution in A549 tumor-bearing nude mice; settings: for uptake / retention in A549 tumor: 0.3 μmol per kg via lateral tail vein, fluorescence imaging; for blocking of Cyp-GRD uptake in the tumor by co-injection: equimolar, 0.3 μmol/kg body weight
Protocol: All in vivo studies were performed in compliance with the Washington University in St Louis Animal Study Committee's requirements for the care and use of laboratory animals in research. Nude mice (18-22 g) were anesthetized with xylazine/ketamine cocktail via intraperitoneal injection and placed in a supine position. The mice were injected subcutaneously with A549 cells (1×10^6) in the lower back of the mice. Tumor masses were palpable at 5-7 days post implant, which reached 5 mm in 10-15 days. Prior to injection of the probe, the mice were anesthetized as described above. A 29-gauge needle was used to inject the probes into the mouse via the lateral tail vein. The molecular probe (100 μL) was injected via the lateral tail vein at 0.3 μmol per kg of body weight. […] [SEQ ID NO:1] were constituted in a vial, and doses of 0.3 μmol per kg of body weight were injected into the A549 tumor-bearing mice.
A non-invasive in vivo continuous wave fluorescence imaging apparatus was used to visualize the distribution and preferential tissue uptake of the cypate-peptide molecular beacons in the nude mice (Achilefu (2004) Technol. Cancer Res. Treat. 3:393-409, incorporated herein by reference). Light from two laser diodes of nominal wavelength 780 nm and nominal power of 50 mW was launched into a fiber optic bundle. Two laser diodes were used to produce as much uniform illumination of the whole animal or organ parts as possible. The nominal 50 mW of incident power was reduced to about 44 mW at the output of the fiber optic bundle. A de-focusing lens in position after the bundle expanded the beam such that nearly the whole animal was illuminated. A Photometrics CCD camera (16 bit, 1024×1024 pixel, back illuminated, thermoelectric Peltier cooled with forced air) was used to capture the emitted photons. An interference filter (830 nm) was mounted in front of the CCD camera input lens such that only emitted fluorescent light from the contrast agent was imaged. Real-time acquisition, display and data processing software (WinView/32) was used to obtain the optical image. The samples were dissolved in 20% aqueous DMSO and animals were injected with doses of 0.3 μmol/kg body weight via the lateral tail vein. Injected volumes were 100 μL for each mouse. Data analysis consisted of subtracting (pixel by pixel) the pre-injection image from the post injection images, and displaying the false color results. Integration of the relative fluorescence intensities of tumor vs. surrounding tissues indicated the extent of selective uptake of the contrast agent. At the completion of the study, the mice were euthanized and some organ parts were excised and rinsed with water. The tissues were placed under the CCD camera and the fluorescence emission from each organ was measured after excitation with the 780 nm laser sources. Tissue parts, instead of whole organs, were used to minimize problems associated with depth-dependent non-linear fluorescence emission. A statistical program in the WinView package was used to estimate the mean fluorescence intensity per organ part.
In vivo optical imaging studies using the cypate-peptide optical probes were performed and analyzed as described above in Example 1. […]

[4] = Absorption and emission spectral properties in 20% aqueous DMSO; format: physicochemical
Protocol: The spectral properties of cypate and the cypate-peptide conjugates were determined in 20% aqueous DMSO, which solubilizes all the compounds. […] Absorbance measurements were performed with a Beckman Coulter DU 640 spectrophotometer. The fluorescence spectra were recorded on Fluorolog-3 fluorometer (HORIBA Jobin Yvon Inc., Edison, N.J.). To prepare the stock solutions, a high precision analytical balance was used to weigh >2 mg of each compound, which was dissolved in DMSO. The DMSO solutions were then diluted with water to obtain a final solution of 20% aqueous DMSO. An aliquot (known volume) of the solution was transferred to a cuvette with 1 μL precision micropipettes and diluted with 20% aqueous DMSO solvent mixture to give a working solution that absorbs at <1.0 absorbance unit. Aliquots of the working solution were diluted with 20% aqueous DMSO and used to determine the molar absorptivity of each compound. For fluorescence measurements, probe solutions with 0.1 absorbance units were used to minimize inner filter effects.
Previous studies have shown that this solvent mixture boosts fluorescence intensity and is well tolerated by rodents. Additionally, the dyes and their peptide conjugates are soluble in this solvent mixture, providing a common medium for spectral measurements.
Absorbance spectra were measured on a Beckman Coulter DU 640 UV-Visible spectrophotometer. Fluorescence spectra were recorded on a HORIBA Jobin Yvon Fluorolog-3 fluorometer. Stock solutions (1.0 mM) of the conjugates were prepared by dissolving each sample in 80% aqueous DMSO. UV-Vis and fluorescence measurements were carried out by adding 5.0 μL of the stock solutions via a micropipette into 3 mL of 20% aqueous DMSO in a quartz cuvette.

[5] = molecular target: T1, purified human αvβ3 integrin protein (Homo sapiens, UniProt P05106+P06756); test: Competitive αvβ3 integrin receptor binding assay with 125I-echistatin tracer (Example 2)
T1 construct: purchased Chemicon International, Inc. (Temecula, Calif.)
Protocol: The binding affinities were measured based on the competitive binding between purified αvβ3 integrin (ABI) and peptide ligands. Echistatin is a polypeptide that binds irreversibly with high affinity and specificity to ABI. ^125I-echistatin was used as a tracer in ABI binding assays.
Receptor binding assays were performed by using purified human αvβ3 integrin protein from Chemicon International, Inc. (Temecula, Calif.). Assays were carried out using the Millipore Duropore membrane 96-well plates and the Millipore MultiScreen system (Bedford, Mass.). The 96-well membrane plate was blocked with 0.1% Polythylenimine blocking solution overnight at 4° C. ^125I-echistatin (50 nmol/L) was added to the binding buffer (50 mM Tris-HCl, pH 7.4, 100 mM NaCl, 2 mM CaCl2, 1 mM MgCl2, 1 mM MnCl2, 1% BSA) containing integrin protein (50 ng per well in 96-well membrane plate) and ligands in a total volume of 200 μL per well. The concentration range of ligand was between 0.01 μM and 100 μM. The mixtures were incubated for 2 h at room temperature, the ABI was then filtered by centrifugation at 1500 g and washed three times with 0.20 mL of ice-cold binding buffer. The filters containing radioactivity bound ABI were removed using a punch apparatus and counted using a Packard Cobra II Auto-gamma counter (Meriden, Conn.). […] Radiolabeling of ^125I-echistatin (Amersham Biosciences, Piscataway, N.J.) was carried out in a mixture of 0.25% BSA, 5.0% lactose, 0.21% citric acid and aprotinin (0.9 TIU/ml).

A549 and A427 cells = test: Cellular internalization of cyclic cypate-RGD conjugates (Example 2); format: cell-based; settings: 1 μM, 1 h, 37° C.
Protocol: A549 and A427 cells were purchased from ATCC and grown in […] tissue culture flasks or on Lab-Tek chambered slides in Ham's F12K medium with 2 mM L-glutamine supplemented with 1.5 g/L sodium bicarbonate, 10% fetal calf serum, 100 units/ml penicillin and 100 units/mL streptomycin.
Cells were grown to confluence on LabTek microscope slides. After washing with PBS, the cells were incubated with 1 μM of the target compounds for 1 h at 37° C. The medium was removed and the cells washed with PBS. The slides were mounted with anti-fading mounting medium. Cells were visualized with an Olympus microscope system (FV 1000) using 755 excitation and 845 nm emission filters.

A549 tumor [6] = test system: A549 tumor; set-up: species or system mice; settings: mouse, in vivo
From the text: The hypothesis that the “RD” motif was solely responsible for the tumor uptake was further tested by injecting ^111In-DOTA-GRD [SEQ ID NO:15] (120 μCi; 1 Ci=37 GBq) into A549 tumor-bearing mice.

CC1(C)C(/C=C/C=C/C=C/C=C2/N(CCC(=O)NCC(=O)N[C@@H](CCCNC(=N)N)C(=O)NCC(=O)N[C@@H](CC(=O)O)C(=O)N[C@@H](CO)C(=O)N3CCC[C@H]3C(=O)N[C@@H](CCCCN)C(=O)O)c3ccc4ccccc4c3C2(C)C)=[N+](CCC(=O)O)c2ccc3ccccc3c21 [Cyp-RGD, Cypate-GRGDSPK]
internalization / fluorescence intensity in cells (A549 cells [1]; 1 μM, 4 h, 37° C.): higher intensity than the linear GRD compound
cytotoxicity (CyQuant), longer treatment (A549 cells [2]): some cytotoxicity
uptake / retention in A549 tumor (A549 tumor [3]): preferentially localized
accumulation / retention in nontarget tissues (A549 tumor [3]; 24 h post injection): primarily retained in the liver and the kidneys
tumor uptake compared among the cypate-peptide conjugates (A549 tumor [3]; 24 h post injection): low
^abεmax [4]: 213,726 cm^−1Mol^−1
^abλmax [4]: 789 nm
^emλmax [4]: 811 nm
IC50 ([5]; Table 3, read-out: IC50): 0.328 µM

CC(C)[C@@H]1NC(=O)[C@@H](Cc2ccccc2)NC(=O)[C@H](CC(=O)O)NC(=O)CNC(=O)[C@H](CCCNC(=N)N)NC(=O)[C@H](CCCCNC(=O)CCN2/C(=C/C=C/C=C/C=C/C3=[N+](CCC(=O)O)c4ccc5ccccc5c4C3(C)C)C(C)(C)c3c2ccc2ccccc32)NC1=O [Cyp-cyclo-RGD, Cypate-cyclo[RGDfVK^(Cypate)]] (cyclo(RGD[dF]VK(Cypate)))
cytotoxicity (CyQuant), longer treatment (A549 cells [2]): some cytotoxicity
uptake / retention in A549 tumor (A549 tumor [3]): preferentially localized
accumulation / retention in nontarget tissues (A549 tumor [3]; 24 h post injection): equally high
retention in the tumor, cyclic versus linear Cyp-RGD (A549 tumor [3]; 24 h post injection): higher by a factor of three
IC50 ([5]; Table 2, read-out: IC50 (αvβ3 integrin binding affinities)): 79.5 µM

CC(C)C[C@@H]1NC(=O)[C@H](CC(=O)O)NC(=O)CNC(=O)[C@H](CCCNC(=N)N)NC(=O)[C@@H](NC(=O)CCN2C(=CC=CC=CC=CC3=[N+](CCC(=O)O)c4ccc5ccccc5c4C3(C)C)C(C)(C)c3c2ccc2ccccc32)CSSC[C@@H](C(N)=O)NC1=O [Cypate-cyclo(CRGDLC)-NH2] (HELM PEPTIDE1{[CC1(C)C(/C=C/C=C/C=C/C=C2/N(CCC(=O)[*:2])c3ccc4ccccc4c3C2(C)C)=[N+](CCC(=O)O)c2ccc3ccccc3c21].C.R.G.D.L.C.[am]}$PEPTIDE1,PEPTIDE1,2:R3-7:R3$$$V2.0)
cellular internalization (A549 and A427 cells): internalized by the cells much better than some of the other compounds

N=C(N)NCCC[C@H](NC(=O)CNC(=O)CN1CCN(CC(=O)O)CCN(CC(=O)O)CCN(CC(=O)O)CC1)C(=O)N[C@@H](CC(=O)O)C(=O)N[C@@H](CO)C(=O)N1CCC[C@H]1C(=O)N[C@@H](CCCCN)C(=O)O [^111In-DOTA-GRD, metal not drawn] (HELM PEPTIDE1{[O=C(O)CN1CCN(CC(=O)O)CCN(CC(=O)[*:2])CCN(CC(=O)O)CC1].G.R.D.S.P.K}$$$$V2.0)
clearance (scintigraphy) (A549 tumor [6]): rapid renal clearance
localization of the material (A549 tumor [6]): nearly all of the material localized in the bladder

CC(C)[C@@H]1NC(=O)[C@@H](Cc2ccccc2)NC(=O)[C@H](CC(=O)O)NC(=O)CNC(=O)[C@H](CCCNC(=N)N)NC1=O [cyclo[RGDfV], reference compound]
blocking of cypate-GRD uptake / internalization in A549 cells (A549 cells [1]; pretreatment 15 min at 37° C., antibodies 10 μg/ml): blocked the uptake
displacement of cypate-GRD from A549 tumor (A549 tumor [3]; blocking peptide given 24 h postinjection of cypate-GRD): unable to displace
blocking of Cyp-GRD uptake in the tumor by co-injection (A549 tumor [3]; 24 h post injection): blocked the uptake
blocking of Cyp-GRD uptake in the tumor by co-injection (A549 tumor [3]; 24 h post injection, listed as cyclo(RGDfV)): significantly blocked
